Experiments:
[1] = biological target: SARS-CoV-2 N protein truncation NΔN180, Myc-tagged (SARS-CoV-2) (UniProt P0DTC9); assay: cross-linking
[2] = biological target: SARS-CoV-2 N protein truncation NΔN247, Myc-tagged (SARS-CoV-2) (UniProt P0DTC9); assay: cross-linking

Substance: SARS-CoV-2 N protein truncation NΔN180, Myc-tagged (from UniProt P0DTC9 181-419) (domain or fragment)
- stoichiometry N [1]: 2

Substance: SARS-CoV-2 N protein truncation NΔN247, Myc-tagged (from UniProt P0DTC9 248-419) (domain or fragment)
- stoichiometry N [2]: 2
